A protein production outcome set (Wang et al. 2014)

Experiment: label from the status in PepcDB records
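Further: failed if final PepcDB status was selected cloned or expressed and not failed if soluble or beyond.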

| Sequence | protein production |
| --- | --- |
| MIELLFPGWLAGILLAIAAGPLGSFVVWRRMSYFGDTLAHASLLGVAFGLLLNINLFSAVIAVTLILALGLVWLERRPYLAVDTLLGIMAHSALSLGLVVVSLMNNVRVDLMAYLFGDLLSVTTEDLWVIGAGVIIVVAVMRWQWRALLSMTISPELAHVDGVKIQRTKLLLMLTTALTIGIAMKFVGALIITSLLIIPAASARRFARTPEQMAIIAVMIGMIAVTGGLAFSAGYNTPAGPSVVLCASLLFIVSLLKPQPA | failed |
| MKLIAVLNLLNQLSNKNSLEEYLNGVIDFLSGWTGCENIGIRVLREAGLAPYVVHRGFDKDFIASESCISVEGDECVCLRVLKQQFKSEDQDHISAAGTYYAPNFYRYVEELREDQLLNFRGLCAHKQFKSLAVIPLLHQGKVVGAIHIADIKDGVFSEEDIHFIETIRPLVAEAIYRHNLEKALEHHHHHH | failed |
| MYKATVIIKLKKGVLNPEGRTIQRALNFLGFNNVKEVQTYKMIDIIMEGENEEKVKEEVEEMCKKLLANPVIHDYEIKVEKIE | not failed |
| MIPTHLPILQVVVPLMAAPVCILLRRPGLCWAWALLIALTTLTMAVGLLAGVLTHGPSAYHLGDWSPPWGIELHVDLLSALVLVLVTATASLVIVYARASFAAEIDPGHHTLAYCLFLLCLTGLLGMAITGDAFNLFVFLEISSLSSYALVALGRDRRALYAAYHYLILGTVGATFYVIGIGFLYMMTGTLNMNDLAQRLPAVAHSRTAVAGVVFLGVGLSLKLALFPLHKWLPAAYSYAPSAVGAFLAATSTKVAFYVMVRLFLGVLAPAFSANLLPGPVSAREMVMVLALAAILSGSFSAIFQSDAKRLLAYSSVSQIGVMVLGLSLFSLDGVAGGLVHMLNHALIKASLFMALGCVFLRIGSVEIADMAGIGRRMPWTMAAFVIGGLSLIGIPGTAGFISKWQLAQSAIAEGWWLAVAALIASSLLAVVYVGKVIEAAYFRPSPAESPSGAPSAPQEAPAMMLAPLWIAALANIGFGLNTTWTLGLAKRAASALMGLPS | failed |
| MGHHHHHHSHMAPWRKADKERHGVAIYNFQGSGAPQLSLQIGDVVRIQETCGDWYRGYLIKHKMLQGIFPKSFIHIK | failed |
| TARLVAGLEDVQVYDGEDAVFSLDLSTIIQGTWFLNGEELKSNEPEGQVEPGALRYRIEQKGLQHRLILHAVKHQDSGALVGFSCPGVQDSAALTIQES | not failed |
| MSLAWLISEFASVGDVTVRALRYYDKINLLKPSDYTEGGHRLYTKDDLYVLQQIQSFKHLGFSLGEIQNIILQRDIETEVFLRQMHFQREVLLAEQERIAKVLSHMDEMTKKFQKEERVNVALFSSFLQTFIWEKENKEGHHHHHH | not failed |
| MSPRRSAAEAQATRGRILGRAAEIASEEGLDGITIGRLAEELEMSKSGVHKHFGTKETLQISTLDKAFVDFWHRVVEPALAEPPGLRRLRAVCANSVGYLEEPLLPGGCLLTAALSEYDGRPGRVRDAVAEVWSRWREQLRADLTAAVDKGELPAGFDVEQALFEIVAAGLALNAAMQLQHDRTAADRARRAIERALAQS | not failed |
| SRIEERKAIIGLYNYAHEMTHGASDREYPRLGQMIVDYENPLKKMMEEFVPHSKSLSDALISLQMVYPRRNLSADQWRNAQLLSLISAPSTMLNPAQSDTMPCEYLSLDAMEKWIIFGFILCHGILNTDATALNLWKLALQSSSCLSLFRDEVFHIHKAAEDLFVNIRGYNKRINDIRECKEAAVSHAGSMHRERRKFLRSALKELATVLSDQPGLLGPKALFVFMALSFARDEIIWLLRHADNMPKKSADDFIDKHIAELIFYMEELRAHVRKYGPVMQRYYVQYLSGFDAVVLNELVQNLSVCPEDESIIMSSFVNTMTSLSVKQVEDGEVFDFRGMRLDWFRLQAYTSVSKASLGLADHRELGKMMNTIIFHTKMVDSLVEMLVETSDLSIFCFYSRAFEKMFQQCLELPSQSRYSIAFPLLCTHFMSCTHELCPEERHHIGDRSLSLCNMFLDEMAKQARNLITDICTEQCTLSDQLLPKHCAKTISQAVN | failed |
| KPIKIRGPSHCAGCKEEIKHGQSLLALDKQWHVSCFKCQTCSVILTGEYISKDGVPYCESDYHAQFG | not failed |
| MKKRIIFFLILLVSFRIFADYKSEYDNLLSARNIKGIAALLPKWEKAEPKNPELYIAYFNYYLLKGQRSTQSLDTYKKDNTNSLALVDQKTNKIAGYLNNNIWYEKEDVDKALSYLEKGLKFGKNRLDMYFGRIHILGEIGEYEKQSQKIIEVLKLGKEINHKWLWSMNEVIPSSESEHFFLISINEYYKNWLQKSSPQTLNAAEKTGEAQLKLYPKNIEVHNYLSLAYIGQGKFKEALNVLLKADKLANEDYVIIFNMGRCYEALKQYDKAKECYLRMKKNPNKQVQDMADQKLSELKKLTK | failed |
| NGSERGVLLSVIDRTEERHAKGLRRQVDHRFDKLVGTISEGVLLMDDTGVFRDGNEAAQNILGRSLDEIIGSRFDDDIWNGLREDGSPLPNVEFPFWRAYVEREPVQEEVMGVYPPDAPPRWIRVNAQPLFRSGQEAPYAVLVSFDDITDERLKEEALQTSRDLLSSVLSSSL | failed |
| GTTVPAPIMQTTDNSLTWLLQNLLDRTPGTRHALVLSRDGLRLCWTEHLTLDRADQLAAICSGIQALAQGASVEFGNGTGGVRHSMTEFHGGLLFIVEAGEGAHLAVVAVEDADPGVVGHQMTELVEQIGEHLRAEPRH | failed |
| MSKPEFIARQGRKPTGWLGHIVARVMARETRPENDRALSFLDLADGDSLIDIGCGHGETLFQADRIVRLSGSVGVDFSEVMLKRARARNRDAVWDTRMAFHCADTAALPFPDKRFGKALSVHTIYFWPNPAAHLAEAFRVLRRGGRFLFCYRSTADRRAVEEFPDTVYRFPSVQEVEEKLKLVGFLGPETTTEDIKGLEHHHHHH | failed |
| MENTAPDVLDAGAAELPVERLKPELADVPNEKEDEDEAVCGGAEGVVELVVELAVLFKKENPVEAENGEAEAFEVLDVDEELKVDTPNGDGEEVVAPDEEDAKRDGVEPAEEDEPKNGEEPVAPKIDGEEPEADEATLKEGDEPVAPKMDDEEPGADEATLKDGVAPVADDGAPKRGDVEVAADEDAPKREELEAEADEGAENKEGEDPKRGVEPLAGAAPNGDDDGVAAEEAGAPNRDDDGVAVEEAEEVTNPKGEEPGAAEEALVVDEPNSDGAGADEEAAVPNPNDGVVEAGVTEAEDPNPNDGVDEEAEEPNPKEGVEEAPNPNDGVVEEAGVDDTEDPKPNPVELGFEDWLKEKDNGEVVDEAEEELVAEEDPNENPPTELD | failed |
| MCGLAGWVDYTRKLDDEFPAIFAMTDTLALRGPDAEGIWKHRNALLGHRRLAVIDLSGGVQPMSYRFPTGQEVTLVYTGEVYNHDALRERLRRAGHEFRTRSDTEVVLHAYLQWGERCCEYLTGMFAFAVFDGRDGHLLLVRDRLGIKPLYYARHREGLLFGSEIKSILAHPEFAARLDAVGLVDLLTLSRGTSQTPFREVQELLPGHLLSWRPNSQAKLRRYWEVRRQEHADDLQSTVQRTRELVTRALGAQLHADVPVCSLLSGGLDSTALTGIAQRIAKAEHGGDINSFSVDFVGQAEQFRSDDLRPDQDQPFALLAAQYIGSRHRTVLIDNAELVCERAREEVFRAKDVPFTFGDMDTSLHLMFGEIRRHSTVAISGEGADELFGGYGWFRDPQAVAAARFPWASRVRLPAGFIDAGFNRRCDLLQYQQASYDDGLRQVEHLAGDSPEERRMREFSHLHLKRWMVLLLERKDRLSMCNGLEVRVPYTDHELVEYVYNVPWSIKSRDGEEKWLLKRACADYVPEAVLKRRKSPYPTSANLGYERFLRGSVRRLLEDAVNPVFGIVSREFLAAELEHPEGYFNTQVSRHNLETALALEGWLRLYGLS | failed |
| MKRMSSLEYHFGVKVRFYPSNNQKKMIKQNYDAQRFVYNQYVGAGRLIYHVKKANRIKQLSSGLPFVMQGMSEYENQQALRMIDTQDLISKPKNIRDKYDFLRVEDIDSLAIANAIQNYHKAWRNYHKIGYGIPTFHKKRSSWSYQTNCQYIKQDAAYLDNGTVRFIDAKHVKLPKLGIVRIAGLRKLIKKRLFNRIPIRIGTASIKKTADDQFYLSLQLGSDIAFVKDYAKTQKQIGIDLNLDNFLTDSNGAMVANPRFYRRAKKKLAHAQRILSRRERRAKKEGRSLCESKNYQKQRLAVAKLHDRIRRQRQDFLQVLSTALIKNHDLVVAEELRSKNLLKNHALAQSISDAGWRSFLTMLEYKADLHGKKFVTIDPKFTTQRCHNCGNIMGQNGYKKLTLKDRKWTCPVCGSYHIRDWNASVNILEKSKGIWKNPKIKKRSK | failed |
| MITLTTDFGLKGPYVGEMKVAMLRINPNAKIVDVTHSVTRHSILEGSFVMEQVVKYSPKGTVHVGVIDPGVGTERRAIVIEGDQYLVVPDNGLATLPLKHIKVKSVYEIIPDKIRKFTGWEISSTFHGRDIFGPAGALIEKGIHPEEFGREIPVDSIVKLNVEPRKEGDVWILKVIYIDDFGNVILNLENYEKPRTVELLDFNLRLPYLETYGLVEKGEMLALPGSHDYLEIAVNMGSAAERLNVKVGDELRVRLL | not failed |
| LRESEARFRMMADTSPIMLWVADQDKKMTFVNQSWLEFRGATLAEESGNGYLEGIHPDDKGHYLGVYSQAFGDRRRFELEYRYRRVDQQYRWIVNVGVPRYLEDGKFMGYVGSCLDITDRKQAQDILQKKLNQILLMRKISQEIRRSLQPTLIFQTAARQVGNVFAVSRCLIHNYSEATTLQVPVVAEYLGGQFTSLLAGEIAVEQAYDPTIIQGDRAMAVVDLDQDLNSTHTKAFYQRFQVKSFLAVRTSYQGKANGIIALHQCDRQRVWTADEIELLEAIAEQMGIALAQAALLEKERERRRELAQKNLELEKATWAAEAANRAKGEFLAMMSHEIRTPMNGVIGMT | failed |
| MSISSKAKEILTQFTREVWSEGNIEASDKYIAPKYTVLHDPGDPWEGRELDVAGYKERVKTLRAAFPDQCFDIQGLFADGDAVVMTWLWTATHKEDIPGFPSTGKQIKMSGATVYYFDGNRLTGHWQITDRLGVYQQLRQAAAGA | not failed |
| MDDGNENISMEVVEPEDAESDMSSDSGSDAEDDTAEPKAPKEVYLPGTKLADDEELVCDESAYVMLHQASTGAPCLSFDVIPDELGSGRQSFPMTAYIVAGTQASRAHVNNLIVMKMSNLHKTQDNDGDEDEELEDDQDDVTDREELKKPQMTCALVKHQGCVNRVRARRLGNSVYAASWSELGRVNIWDLTQPLQAVENAQLAKQYEQSEARPVFTFGGHQQEGFAIDWSPSADGVLATGDCRRDIHVWTPVEDGTWKVDQRPLAGHSQSVEDLQWSPNERSVLASCSVDKTIRIWDCRASPQKACMLTCEDAHQSDVNVISWNRNEPFIASGGDDGYLHIWDLRQFQSKKPIATFKHHTDHITTVEWSPAEATVLASGGDDDQIALWDLAVEKDIDQAVDPAQNEDVLNKLPPQLLFIHQGQKEIKELHWHPQLPGVLLSTAHSGFNIFRTISV | failed |
| MGFADFFKNFKINKLRTAPSKEEQPSHWVKCPKCYALMYHKEVFSKYSVCLKCHYHFRMKAAERIEFLCDVGSFEEFDKHLRPNDPLNFVDKESYKQRIKKYEKRTNRPSSVISGEAKINRMPLQIVVFDFSFMGGSLGSVEGEKIVRAINRAVAKREALLIVSASGGARMQESTYSLMQMAKTSAALNRLSEAKLPFISLLSDPTYGGVSASFAFLGDLIIAEPGAMIGFAGPRVIKQTIGADLPEGFQTAEFLLEHGLIDMIVHRKDLKKTLSDLIAMMTHKTSKIF | failed |
| MVKDRQIQKTKVAIYNAFISLLQENDYSKITVQDVIGLANVGRSTFYSHYESKEVLLKELCEDLFHHLFKQGRDVTFEEYLVHILKHFEQNQDSIATLLLSDDPYFLLRFRSELEHDVYPRLREEYITKVDIPEDFLKQFLLSSFIETLKWWLHQRQKMTVEDLLKYYLTMVER | not failed |
| SAKNAYTKLGTDDNAQLLDIRATADFRQVGSPNIKGLGKKAVSTVYNGEDKPGFLKKLSLKFKDPENTTLYILDKFDGNSELVAELVALNGFKSAYAIKDGAEGPRGWLNSSLPWIEPKKT | not failed |
| MARRDISGAVDFAYLEGFAAGDFAVVDEVLALFREQAALWAPMLDPTHPGWKDAVHTVKGAARGVGAFNLGEVCERCEAGQESLEGVRTALDAALLDIAAYAHEQALRSLKG | not failed |
